In patent publication US20130059782:

Biological target: full-length TF his-tag modified protein in yeast-derived microvesicles (TT-173): mature hTF with Asn124Ala mutation and six histidines at the C-terminus

B1: activated coagulation Factor VII (purified commercial FVIIa) (protein)
chain: ANAFLEELRPGSLERECKEEQCSFEEAREIFKDAERTKLFWISYSDGDQCASSPCQNGGSCKDQLQSYICFCLPAFEGRNCETHKDDQLICVNENGGCEQYCSDHTGTKRSCRCHEGYSLLADGVSCTPTVEYPCGKIPILEKRNASKPQGRIVGGKVCPKGECPWQVLLLVNGAQLCGGTLINTIWVVSAAHCFDKIKNWRNLIAVLGEHDLSEHDGDEQSRRVAQVIIPSTYVPGTTNHDIALLRLHQPVVLTDHVVPLCLPERTFSERTLAFVRFSLVSGWGQLLDRGATALELMVLNVPRLMTQDCLQQSRKVGDSPNITEYMFCAGYSDGSKDSCKGDSGGPHATHYRGTWYLTGIVSWGQGCATVGHFGVYTRVSQYIEWLQKLMRSEPRPGVLLRAPFP
- amidolytic activity of the TF:FVIIa complex (chromogenic substrate S-2288), TT-173 with or without added PS: there was no appreciable differences in the amidolytic activity between TT-173 with or without PS at the three concentrations of TT-173 tested, and at both concentrations of FVIIa used, 50 nM (not shown) or 500 nM (FIG. 7)
